From article PMC12489471, “A multi-dentate, cooperative interaction between endo- and exo-ribonucleases within the bacterial RNA degradosome” (Nucleic Acids Research, 2025)

T1: PNPase carrying a C-terminal Hisx6 tag (E. coli polynucleotide phosphorylase) (E. coli, UniProt P05055 1-711)
T1 construct: polynucleotide phosphorylase (PNPase), E. coli; Immobilised through the His tag on an NTA chip for SPR; also called PNPase C-His; PNPase with a 6xHisTag at the CTD; source: E. coli Evo21(DE3), purified (Ni-NTA, butyl-Sepharose HIC, Q, Superdex S200); not shown: His6, C-terminal, kept
T1 sequence (looked up): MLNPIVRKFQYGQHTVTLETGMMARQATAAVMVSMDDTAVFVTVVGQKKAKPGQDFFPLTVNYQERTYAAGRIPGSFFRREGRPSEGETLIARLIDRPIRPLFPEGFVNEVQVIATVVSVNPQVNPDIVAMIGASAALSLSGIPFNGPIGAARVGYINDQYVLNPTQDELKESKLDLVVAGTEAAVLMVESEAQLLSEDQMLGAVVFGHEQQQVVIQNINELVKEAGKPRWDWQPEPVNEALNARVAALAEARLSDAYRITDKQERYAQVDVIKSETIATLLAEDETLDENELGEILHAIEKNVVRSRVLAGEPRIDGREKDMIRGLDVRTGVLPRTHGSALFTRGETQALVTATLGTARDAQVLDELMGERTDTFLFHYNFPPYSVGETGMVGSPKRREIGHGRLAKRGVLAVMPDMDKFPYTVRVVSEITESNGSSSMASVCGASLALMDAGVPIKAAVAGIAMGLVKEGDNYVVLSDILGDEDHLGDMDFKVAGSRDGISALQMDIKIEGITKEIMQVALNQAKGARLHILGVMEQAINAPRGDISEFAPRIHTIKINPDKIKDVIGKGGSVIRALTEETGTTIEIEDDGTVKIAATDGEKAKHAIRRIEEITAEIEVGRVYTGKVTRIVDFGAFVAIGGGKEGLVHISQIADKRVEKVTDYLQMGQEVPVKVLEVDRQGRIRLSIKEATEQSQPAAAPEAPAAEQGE

T2: PNPase carrying a C-terminal Hisx6 tag (E. coli polynucleotide phosphorylase) (E. coli, UniProt P05055 1-711)
T2 construct: Held on the NTA chip by its His tag in the SPR; also called PNPase C-His; PNPCHis; source: E. coli Evo21(DE3), purified (Ni-NTA, butyl-Sepharose, Q, SEC); not shown: His6, C-terminal, kept
T2 sequence (looked up): T1 sequence (looked up)

B1: RNase E 985-1053 (domain or fragment, E. coli, UniProt P21513 985-1053, looked up)
chain: VAAEVETVAAVEPEVTVEHNHATAPMTRAPAPEYVPEAPRHSDWQRPTFAFEGKGAAGGHTATHHASAA
notes: the SPR methods name a peptide 960–1053; Lacks the terminal Pro-rich motif; Limits differ between results (985–1053) and methods (960–1053); also called RNase E peptide 985–1053; RNase E 960–1053 (methods); source: E. coli Evo21(DE3), pMxe vector, purified (Ni-NTA, amylose, TEV, Q, Superdex 75); not shown: His6, N-terminal, cleaved; MBP, N-terminal, cleaved; intein, C-terminal, cleaved
B2: E. coli RNase E 921–1061-muGFP (domain or fragment, UniProt P21513 921-1061, looked up)
chain: AVTEQPQVITESDVAVAQEVAEQAEPVVEPQEETADIEEVVETAEVVVAEPEVVAQPAAPVVAEVAAEVETVAAVEPEVTVEHNHATAPMTRAPAPEYVPEAPRHSDWQRPTFAFEGKGAAGGHTATHHASAAPARPQPVE
notes: Only residues 1003–1057 are built in the model; also called RNase E-muGFP-Chis; RNE-muGFP-CHis; source: E. coli Evo21(DE3), purified (Ni-NTA, amylose, TEV, Q, Superdex 200); not shown: MBP, N-terminal, cleaved; muGFP, C-terminal, kept; His8, C-terminal, kept
B3: RNase E 921–1061-muGFP (protein, UniProt P21513 921-1061, looked up, fragment)
chain: B2 chain
modifications: muGFP fusion
B4: RNase E 960 – 1061 R1056A (domain or fragment, E. coli, UniProt P21513 960-1061, looked up)
chain: VVETAEVVVAEPEVVAQPAAPVVAEVAAEVETVAAVEPEVTVEHNHATAPMTRAPAPEYVPEAPRHSDWQRPTFAFEGKGAAGGHTATHHASAAPAAPQPVE
notes: source: E. coli Evo21(DE3), purified (Ni-NTA, amylose, TEV cleavage, Q, SEC); not shown: His6, N-terminal, cleaved; MBP, N-terminal, cleaved; intein, C-terminal, cleaved
B5: E. coli PNPase core (domain or fragment, UniProt P05055 1-552, looked up)
chain: MLNPIVRKFQYGQHTVTLETGMMARQATAAVMVSMDDTAVFVTVVGQKKAKPGQDFFPLTVNYQERTYAAGRIPGSFFRREGRPSEGETLIARLIDRPIRPLFPEGFVNEVQVIATVVSVNPQVNPDIVAMIGASAALSLSGIPFNGPIGAARVGYINDQYVLNPTQDELKESKLDLVVAGTEAAVLMVESEAQLLSEDQMLGAVVFGHEQQQVVIQNINELVKEAGKPRWDWQPEPVNEALNARVAALAEARLSDAYRITDKQERYAQVDVIKSETIATLLAEDETLDENELGEILHAIEKNVVRSRVLAGEPRIDGREKDMIRGLDVRTGVLPRTHGSALFTRGETQALVTATLGTARDAQVLDELMGERTDTFLFHYNFPPYSVGETGMVGSPKRREIGHGRLAKRGVLAVMPDMDKFPYTVRVVSEITESNGSSSMASVCGASLALMDAGVPIKAAVAGIAMGLVKEGDNYVVLSDILGDEDHLGDMDFKVAGSRDGISALQMDIKIEGITKEIMQVALNQAKGARLHILGVMEQAINAPRGDISEFA
notes: polynucleotide phosphorylase (PNPase) core lacking the KH and S1 domains, E. coli, aa 1–552 by the methods (1–550 in the results and a legend); also called PNPase core (1–550); PNPase core (aa 1–552); source: E. coli Evo21(DE3), purified (Ni-NTA, intein cleavage, HIC, Q, Superdex 200); not shown: Mycobacterium xenopi GyrA intein, C-terminal, cleaved; His8, C-terminal, cleaved

What was measured:
[1] = biological target: S. enterica PNPase core (Salmonella enterica serovar Typhimurium) (UniProt Q8ZLT3); test: cryo-EM structure; purified PNPase core and RNase E-muGFP-CHis mixed 1:2, complex separated on Superdex 200 Increase in 20 mM Tris–HCl pH 8.0, 25 mM MgCl2, 150 mM KCl, 1 mM TCEP; 8 mM CHAPSO; E. coli and S. enterica proteins
[2] = biological target: T1, PNPase carrying a C-terminal Hisx6 tag …; test: SPR; PNPase with C-terminal His6 tag immobilised on Series S Sensor Chip NTA (5 RU); Biacore T200, 25°C; 20 mM HEPES pH 7.2, 150 mM NaCl, 5 mM MgCl2, 0.5 mM TCEP, 0.05% Tween 20; six peptide concentrations up to 9000 nM (up to 5000 nM for RNase E 985–1061); contact 60 s, dissociation 120 s; conditions: both partners purified
[3] = biological target: T1, PNPase carrying a C-terminal Hisx6 tag …; test: as above; conditions: both partners purified; remark: listed apart in the source
[4] = biological target: B5; test: cryo-EM structure; purified PNPase core and RNase E-muGFP-CHis mixed 1:2, complex separated on Superdex 200 Increase in 20 mM Tris–HCl pH 8.0, 25 mM MgCl2, 150 mM KCl, 1 mM TCEP; 8 mM CHAPSO; E. coli and S. enterica proteins; conditions: both partners purified
[5] = system: PNPase core; test: Cryo-EM of E. coli PNPase core:RNase E complex; format: binding; conditions: 20 mM Tris–HCl pH 8.0, 25 mM MgCl2, 150 mM KCl, 1 mM TCEP
Experimental: The PNPase core encoding sequence from E. coli (aa 1–552), Salmonella enterica serovar Typhimurium (UniProt: Q8ZLT3) (aa 1–552), or Pseudomonas aeruginosa (strain PAO1, UniProt: Q9HV59) (aa 1–553) was amplified using corresponding genomic DNA as a template and cloned into pExp-Mxe-CHis expression vector. The protein of interest, produced as a fusion with C-terminal 8×His-tagged Mycobacterium xenopi GyrA intein, was expressed in Evo21(DE3) cells at 18°C overnight following induction with 0.4 mM IPTG. […] After cleavage, the protein buffer was exchanged using HiPrep 26/10 desalting column (Cytiva), and the protein solution was reapplied to Ni-NTA resin to remove His-tagged intein and uncleaved material. […]
Purified PNPase core and RNE-muGFP-CHis proteins were mixed in 1:2 ratio and their complex were separated on the Superdex 200 Increase 10/300 GL column (Cytiva) equilibrated with cryo-EM Buffer (20 mM Tris–HCl, pH 8.0, 25 mM MgCl2, 150 mM KCl, 1 mM TCEP). […] The samples were mixed with CHAPSO (3-([3-cholamidopropyl]dimethylammonio)-2-hydroxy-1-propanesulfonate) at a final concentration of 8 mM before being applied onto R2/2 Au Ultrafoil grids (Quantifoil) that had been pre-treated by glow-discharge (PELCO easiGLOW: 60 s, 25 mA, 0.39 mBar). […]

[6] = biological target: T2, PNPase carrying a C-terminal Hisx6 tag …; test: SPR; conditions: both partners purified
[7] = biological target: the molecule itself; test: cryo-EM structure; PNPase core with RNase E peptide 960–1061; resolution of the peptide insufficient to align the sequence

**Q.** Which stoichiometry N (RNase E peptide per PNPase trimer) [1] does the source give for “S. enterica RNase E 921–1067-muGFP (domain or fragment)” here?
**A.** Its stoichiometry N (RNase E peptide per PNPase trimer) is 1.

**Q.** Which Kd [2] does the source give for B1 here?
**A.** Its Kd is 100 µM.

**Q.** And the Kd [3]?
**A.** Its Kd is 11.5 µM.

**Q.** And the koff [3]?
**A.** Its koff is 0.339 s⁻¹.

**Q.** And the kon [3]?
**A.** Its kon is 29400 M⁻¹ s⁻¹.

**Q.** Which “stoichiometry N” value [4] does the source give for B2 here?
**A.** The value was 1 RNase E peptide per PNPase trimer.

**Q.** With B3 as the molecule, how does the “binding mode / stoichiometry with E. coli PNPase core” value [5] read?
**A.** Its value is “only one RNase E peptide engages with a PNPase trimer, interacting with two protomers”.

**Q.** How did the kon [6] turn out when B4 was run?
**A.** Its kon is 150000 M⁻¹ s⁻¹.

**Q.** With B5 as the molecule, how does the “stoichiometry N” value [7] read?
**A.** Its value is 3.
